The record followed here is the DeepSol protein solubility set.

A short description of the data set: soluble on expression in E. coli; label from the status in PepcDB or PDB records.
For the sequence “MSLIHPHIADALKVPDLVRLNDDLVLIRFESMKIYSALAAVRHLLERGTIRPGQTLIDSSSGIYAYALALACHRYGMRCHVVASTTVDTTTRAQLEILGATVEQVRPSRNLKLDQELRVRRVREILADHPDWHWMRQYHDDVHYLGYQEVADRITTAFPSTPLTVVGGVGSGASTGGLVERLRATDPSVRLVGVQPFGSVTFGSQAHHDPEAIIAGIGSSIVFDNVRHHLYDAVHWLDFTHAMSGTIALLRERAVFAGLSTGAGYLAATYEARRHPDRLHLVIGADTGHRYVERVFARHTEALDPAPLKPVEVSAPEEMSMPWSRMAWRRTAEGHHHHHH”, the “soluble on expression in E. coli” value is listed as “soluble”.

“MSLIHYIPMFGKIKLTNLEIKMGNELISIKEEGDYFLYLRRDVERVIVGDYLQILPAPARGYGVKLMMVKLKRPIALAPGKSIEGFIQVPVEVSVKVGDSEIDRFGIGREKYALYGTLENGVIVRYCTGYIGNEPNGLGNLKVKIVNKGEDWGFIDRIVFPMLDLMYYSKDKAFYPLIRVEIQEDINVINTGEAPLPNLVSTGEEKSLRFRMRWEGHHHHHH”: the “soluble on expression in E. coli” value is listed as “soluble”.

As to “MSLIPLRQNIASMKGYIPGYQPPDIASWIKLNTNENPYPPSPEVVKAILEELGPDGAALRIYPSASSQKLREVAGELYGFDPSWIIMANGSDEVLNNLIRAFAAEGEEIGYVHPSYSYYGTLAEVQGARVRTFGLTGDFRIAGFPERYEGKVFFLTTPNAPLGPSFPLEYIDELARRCAGMLVLDETYAEFAESNALELVRRHENVVVTRTLSKSYSLAGMRIGLAIARPEVIAALDKIRDHYNLDRLAQAACVAALRDQAYLSECCRRIRETREWFTTELRSIGYDVIPSQGNYLFATPPDRDGKRVYDGLYARKVLVRHFSDPLLAHGMRISIGTREEMEQTLAALKEIGEGHHHHHH”, the “soluble on expression in E. coli” value was “soluble”.

In the case of “MSLIQAIKAKIIVTPGHAPIKDSAVIVKNNIIEKIIPSTELKNNYYQIIDLKNSVVLPGFINSHIHLELHWVQKLLEPFKSFPSWLNQIIKLKKNFNNSKIPYWVNKSLNECINSGVTTIGEISSYDGLDYKPILDKKIRAVYFYELTNSTLKNIENKFFQSLIRNKTNPLINFRIFPHSIYSLDTKSLKRILAFAKKHNIKLGMHLSESIDEVKYSKRKRNNFEKEVFPKTSYKPTIETKPTTPLEYLDTLNINRQHITLIHMNNLSQNDFKILTKKEYPVIICPRSNLYLNQKLPNIKFFMNYMKTGLGTDGLSSNLSINFLDEINFLYLNAKKIINNPEEKILSIATIGGAKALGIDNEVGTIEKGKKADIIAFDLLNKNPYLSIIHSKKRNLKMSMINGKIIKLREGHHHHHH”, the “soluble on expression in E. coli” value is given as “soluble”.

On to “MSLIQGKAIIIGGGPCGLSAAIHLKQIGIDALVIEKGNVVNSIYNYPTHQTFFSSSEKLEIGDVAFITENRKPVRIQALSYYREVVKRKNIRVNAFEMVRKVTKTQNNTFVIETSKETYTTPYCIIATGYYDHPNYMGVPGEDLPKVFHYFKEGHPYFDKDVVVIGGKNSSVDAALELVKSGARVTVLYRGNEYSPSIKPWILPEFEALVRNGTIRMEFGACVEKITENEVVFRSGEKELITIKNDFVFAMTGYHPDHQFLEKIGVEIDKETGRPFFNEETMETNVEGVFIAGVIAAGNNANEIFIENGRFHGGHIAAEIAKRENHEGHHHHHH”, for which the “soluble on expression in E. coli” value is given as “soluble”.

Regarding “MSLIVITGASSGLGAELAKLYDAEGKATYLTGRSESKLSTVTNCLSNNVGYRARDLASHQEVEQLFEQLDSIPSTVVHSAGSGYFGLLQEQDPEQIQTLIENNLSSAINVLRELVKRYKDQPVNVVMIMSTAAQQPKAQESTYCAVKWAVKGLIESVRLELKGKPMKIIAVYPGGMATEFWETSGKSLDTSSFMSAEDAALMIHGALANIGNGYVSDITVNREGHHHHHH”, the “soluble on expression in E. coli” value was “soluble”.

“MSLIVNFHKVNLKKKYPLQISRGTHSKSQNLFVEIIKDGITGWGESAPGKTEGASNADEVEKWLLKLIDTGIDSLSIYEIFQRSKDLNIPPCVHAAIDIALWDWKAKKAGLPLNNLLGLPTPSTPTSLTIGINPPEIIKERVEMLLSNPQIKALKIKLGSPDGIEYDKSIYSQVLESTKKSNISIRVDANGGWSLDEAKLMMKWLAERKAEYIEQPLVEGEEDKLKYLFKSRPLPIFIDESCRFSEDVARHFEYVDGVNLKLMKCGGITEALRILNVAKSHNLKTMIGCMSESSISISAGASISGIIDYVDLDSHYNLDPDPSEGATMIDGITMNDNKPGHGSKLKIENYAEGHHHHHH”: the “soluble on expression in E. coli” value is listed as “soluble”.

For the sequence “MSLIYLHGFDSNSPGNHEKVLQLQFIDPDVRLVSYSTRHPKHDMQHLLKEVDKMLQLNVDERPLICGVGLGGYWAERIGFLCDIRQVVFNPNLFPYENMEGKIDRPEEYADIATKCVTNFREKNRDRCLVILSRHDEALDSQRSAQALHPFYEIVWDEEQTHKFKNISPYLQRIKAFKTLGEGHHHHHH”, the “soluble on expression in E. coli” value is on record as “not soluble”.
